{"source": "patent US11618906B2", "about": "“Hydroxylation techniques” (HYPHA DISCOVERY LTD., priority 2018, dated 2023)", "molecules": {"B1": {"name": "aluC09M12: cytochrome P450 aluC09 mutant T291E; amino acid sequence SEQ ID NO: 12 (protein, listed as Amycolatopsis lurida)", "chain": "MTDVEETTATLPLARKCPFSPPPEYERLRRESPVSRVGLPSGQTAWALTRLEDIREMLSSPHFSSDRQSPSFPLMVARQIRREDKPFRPSLIAMDPPEHSRARRDVVGEFTVKRMKALQPRIQQIVDEHLDALLAGPKPADLVQALSLPVPSLVICELLGVPYSDHEFFQSCSSRMLSREVTAEERMTAFEQLENYLDELVTKKEANATEDDLLGRQILKQRETGEADHGELVGLAFLLLIAGHETTANMISLGTVTLLENPDQLAKIKADPGKTLAAIEELLRVFTIAEEATSRFATADVEIGGTLIRAGEGVVGLSNAGNHDPDGFENPDTFDIERGARHHVAFGFGVHQCLGQNLARLELQIVFDTLFRRVPGLRIAVPVDELPFKHDSTIYGLHALPVTW"}}, "type_in_all_cases": "biochemical", "key": {"[1]": {"test": "Metabolism of epothilone B by P450 aluC09 and mutants", "settings": "percent of substrate being converted; 0.125 mg/ml, 27° C., 16-20 hours; [CYP] per enzyme as in Table 8", "procedure,_shortened": "(§1)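 In these assays each P450 aluC09 mutant, supported by ferredoxin and ferredoxin reductase, turns over substrate (0.125 mg/ml) in 50 mM potassium phosphate pH 7.4 containing 5 mM MgCl2 and an NADP/G6P/G6PDH regeneration system. Incubation lasts 16-20 hours at 27° C with shaking, and acetonitrile-extracted samples are analysed for conversion by UPLC-MS.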"}, "[2]": {"test": "O-demethylation of indomethacin catalysed by cytochrome P450 aluC09 and mutants", "settings": "% by UV peak area at 275 nm; 0.125 mg/ml substrate, 27° C., 16-20 hours", "procedure,_shortened": "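Lyophilised CYP450aluC09 mutants with ferredoxin aluF03 and reductase SCF15A, 0.125 mg/ml substrate, 50 mM potassium phosphate pH 7.4, 5 mM MgCl2, G6P/G6PDH/NADP recycling. Shaken 16-20 h at 27° C. Acetonitrile-quenched, conversion measured by UPLC-MS.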"}, "[3]": {"test": "Metabolism of valsartan by P450 aluC09 and mutants", "settings": "percent of substrate being converted; 0.125 mg/ml, 27° C., 16-20 hours; [CYP] per enzyme as in Table 8", "procedure,_shortened": "as §1"}, "[4]": {"test": "Hydroxylation of diclofenac catalysed by cytochrome P450 aluC09 and mutants (UPLC-PDA-MS)", "procedure,_shortened": "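Lyophilised CYP450aluC09 or mutants, with ferredoxin aluF03 and reductase SCF15A, incubated 16-20 hours at 27° C with 0.125 mg/ml diclofenac in 50 mM potassium phosphate pH 7.4, 5 mM MgCl2, and G6P/NADP/G6PDH regeneration. Acetonitrile-extracted; conversion by UPLC-PDA-MS against authentic hydroxylated standards.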"}, "[5]": {"test": "Metabolism of buparvaquone by P450 aluC09 and mutants", "settings": "percent of substrate being converted; 0.125 mg/ml, 27° C., 16-20 hours; [CYP] per enzyme as in Table 8", "procedure,_shortened": "as §1"}, "[6]": {"test": "Metabolism of bosentan by P450 aluC09 and mutants", "settings": "percent of substrate being converted; 0.125 mg/ml, 27° C., 16-20 hours; [CYP] per enzyme as in Table 8", "procedure,_shortened": "as §1"}, "[7]": {"test": "Hydroxylation of aceclofenac catalysed by cytochrome P450 aluC09 and mutants", "procedure,_shortened": "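Conversion was assessed by UPLC-MS (UV and MS detection) after acetonitrile extraction of reactions run 16-20 h at 27° C, shaking. Reactions contained substrate at 0.125 mg/ml, P450 mutant plus ferredoxin and reductase partners, 1 mM NADP with glucose-6-phosphate regeneration, in phosphate buffer pH 7.4.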"}, "[8]": {"test": "Metabolism of BIRB796 by P450 aluC09 and mutants", "settings": "percent of substrate being converted; 0.125 mg/ml, 27° C., 16-20 hours; [CYP] per enzyme as in Table 8", "procedure,_shortened": "as §1"}, "[9]": {"test": "Metabolism of ritonavir by P450 aluC09 and mutants", "settings": "percent of substrate being converted; 0.125 mg/ml, 27° C., 16-20 hours; [CYP] per enzyme as in Table 8", "procedure,_shortened": "as §1"}, "[10]": {"test": "Metabolism of ruxolitinib by P450 aluC09 and mutants", "settings": "percent of substrate being converted; 0.125 mg/ml, 27° C., 16-20 hours; [CYP] per enzyme as in Table 8", "procedure,_shortened": "as §1"}, "[11]": {"test": "Metabolism of tofacitinib by P450 aluC09 and mutants", "settings": "percent of substrate being converted; 0.125 mg/ml, 27° C., 16-20 hours; [CYP] per enzyme as in Table 8", "procedure,_shortened": "as §1"}, "[12]": {"test": "Metabolism of 4-pyrrolidylacetophenone by P450 aluC09 and mutants", "settings": "percent of substrate being converted; 0.125 mg/ml, 27° C., 16-20 hours; [CYP] per enzyme as in Table 8", "procedure,_shortened": "as §1"}, "[13]": {"test": "Hydroxylation of flufenamic acid catalysed by cytochrome P450 aluC09 and mutants", "procedure,_shortened": "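Lyophilised CYP450aluC09 mutants with ferredoxin aluF03 and reductase SCF15A, in 50 mM potassium phosphate pH 7.4, 5 mM MgCl2, 0.125 mg/ml flufenamic acid, G6P/NADP/G6PDH NADPH regeneration. Shaken 16-20 h at 27° C; acetonitrile-quenched, conversion to two hydroxy products by UPLC-MS.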"}, "[14]": {"test": "Hydroxylation / de-N-ethylation of napropamide catalysed by cytochrome P450 aluC09 and mutants", "procedure,_shortened": "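Conversion of napropamide (0.125 mg/ml) to hydroxylated and de-ethylated metabolites was measured by UPLC-MS after acetonitrile extraction. Reactions ran 16-20 h at 27° C in pH 7.4 potassium phosphate (50 mM) with 5 mM MgCl2, 1 mM NADP, 5 mM G6P and 2 UN/ml G6PDH. Enzymes were lyophilised P450 aluC09 variants, ferredoxin aluF03 and ferredoxin reductase SCF15A.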"}, "[15]": {"test": "Metabolism of celecoxib by P450 aluC09 and mutants", "settings": "percent of substrate being converted; 0.125 mg/ml, 27° C., 16-20 hours; [CYP] per enzyme as in Table 8", "procedure,_shortened": "as §1"}, "[16]": {"test": "Metabolism of tivantinib by P450 aluC09 and mutants", "settings": "percent of substrate being converted; 0.125 mg/ml, 27° C., 16-20 hours; [CYP] per enzyme as in Table 8", "procedure,_shortened": "as §1"}, "[17]": {"settings": "% by UV peak area at 275 nm, 0.125 mg/ml substrate, 27° C., 16-20 hours"}}}
{"molecule": "B1", "values": [{"measurement": "% conversions (avg) Epothilone B", "setting": "[1]", "value": 50.8, "unit": "%"}, {"measurement": "Indomethacin (1.74 mins)", "setting": "[2]", "value": 94.6, "unit": "%"}, {"measurement": "O-demethyl-Indomethacin (1.52 mins)", "setting": "[2]", "value": 5.4, "unit": "%"}, {"measurement": "% conversions (avg) Valsartan", "setting": "[3]", "value": 38, "unit": "%"}, {"measurement": "4′,5-dihydroxy-diclofenac 1.38 mins", "setting": "[4]; [17]", "value": 1.8, "unit": "%"}, {"measurement": "4′-hydroxy-diclofenac (1) 1.62 mins", "setting": "[4]; [17]", "value": 30.3, "unit": "%"}, {"measurement": "5-hydroxy-diclofenac (2) 1.58 mins", "setting": "[4]; [17]", "value": 10.8, "unit": "%"}, {"measurement": "Diclofenac (Substrate) 1.81 mins", "setting": "[4]; [17]", "value": 58.0, "unit": "%"}, {"measurement": "Hydroxylated Ratio hydroxy 1:hydroxy 2", "setting": "[4]; diclofenac, ratio of UV peak areas at 275nm", "value": 2.8}, {"measurement": "% conversions (avg) Buparvaquone", "setting": "[5]", "value": 9.7, "unit": "%"}, {"measurement": "% conversions (avg) Bosentan", "setting": "[6]", "value": 100, "unit": "%"}, {"measurement": "Aceclofenac (Substrate) (1.80 mins)", "setting": "[7]; [17]", "value": 25.2, "unit": "%"}, {"measurement": "Dihydroxy-Aceclofenac (1.42 mins)", "setting": "[7]; [17]", "value": 27.8, "unit": "%"}, {"measurement": "Hydroxy-Aceclofenac (1) (1.64 min)", "setting": "[7]; [17]", "value": 7.9, "unit": "%"}, {"measurement": "Hydroxy-Aceclofenac (2) (1.60 min)", "setting": "[7]; [17]", "value": 39.1, "unit": "%"}, {"measurement": "Hydroxylated Ratio 2:1", "setting": "[7]; aceclofenac, ratio of UV peak areas at 275 nm", "value": 4.9}, {"measurement": "% conversions (avg) BIRB796", "setting": "[8]", "value": 23, "unit": "%"}, {"measurement": "% conversions (avg) Ritonavir", "setting": "[9]", "value": 31.9, "unit": "%"}, {"measurement": "% conversions (avg) Ruxolitinib", "setting": "[10]", "value": 48.9, "unit": "%"}, {"measurement": "% conversions (avg) Tofacitinib", "setting": "[11]", "value": 0, "unit": "%"}, {"measurement": "% conversions (avg) 4-pyrrolidylacetophenone", "setting": "[12]", "value": 30.8, "unit": "%"}, {"measurement": "Flufenamic Acid (Substrate) 1.93 mins", "setting": "[13]; [17]", "value": 95.9, "unit": "%"}, {"measurement": "Hydroxy-Flufenamic Acid (1) 1.69 mins", "setting": "[13]; [17]", "value": 2.0, "unit": "%"}, {"measurement": "Hydroxy-Flufenamic Acid (2) 1.65 mins", "setting": "[13]; [17]", "value": 2.1, "unit": "%"}, {"measurement": "Hydroxylated Ratio 1:2", "setting": "[13]; flufenamic acid, ratio of UV peak areas at 275 nm", "value": 0.9}, {"measurement": "Desethyl Napropamide (1.62 min)", "setting": "[14]; [17]", "value": 46.0, "unit": "%"}, {"measurement": "Desethyl-hydroxy-Napropamide (1.41 min)", "setting": "[14]; [17]", "value": 9.7, "unit": "%"}, {"measurement": "Hydroxy-Napropamide (1) (1.53 min)", "setting": "[14]; [17]", "value": 2.5, "unit": "%"}, {"measurement": "Hydroxy-Napropamide (2), (1.52 min)", "setting": "[14]; [17]", "value": 5.3, "unit": "%"}, {"measurement": "M-2Da (unidentified) (1.89 min)", "setting": "[14]; [17]", "value": 5.8, "unit": "%"}, {"measurement": "Napropamide (substrate)", "setting": "[14]; [17]", "value": 34.1, "unit": "%"}, {"measurement": "Hydroxylated Ratio 2:1", "setting": "[14]; napropamide, ratio of UV peak areas", "value": 2.1}, {"measurement": "% conversions (avg) Celecoxib", "setting": "[15]", "value": 5.4, "unit": "%"}, {"measurement": "% conversions (avg) Tivantinib", "setting": "[16]", "value": 7.2, "unit": "%"}]}
